First the molecules themselves.
T1: EsCas13d, nuclease-dead (Eubacterium siraeum, UniProt B0MS50, R295A;H300A;R849A;H854A)
T1 sequence: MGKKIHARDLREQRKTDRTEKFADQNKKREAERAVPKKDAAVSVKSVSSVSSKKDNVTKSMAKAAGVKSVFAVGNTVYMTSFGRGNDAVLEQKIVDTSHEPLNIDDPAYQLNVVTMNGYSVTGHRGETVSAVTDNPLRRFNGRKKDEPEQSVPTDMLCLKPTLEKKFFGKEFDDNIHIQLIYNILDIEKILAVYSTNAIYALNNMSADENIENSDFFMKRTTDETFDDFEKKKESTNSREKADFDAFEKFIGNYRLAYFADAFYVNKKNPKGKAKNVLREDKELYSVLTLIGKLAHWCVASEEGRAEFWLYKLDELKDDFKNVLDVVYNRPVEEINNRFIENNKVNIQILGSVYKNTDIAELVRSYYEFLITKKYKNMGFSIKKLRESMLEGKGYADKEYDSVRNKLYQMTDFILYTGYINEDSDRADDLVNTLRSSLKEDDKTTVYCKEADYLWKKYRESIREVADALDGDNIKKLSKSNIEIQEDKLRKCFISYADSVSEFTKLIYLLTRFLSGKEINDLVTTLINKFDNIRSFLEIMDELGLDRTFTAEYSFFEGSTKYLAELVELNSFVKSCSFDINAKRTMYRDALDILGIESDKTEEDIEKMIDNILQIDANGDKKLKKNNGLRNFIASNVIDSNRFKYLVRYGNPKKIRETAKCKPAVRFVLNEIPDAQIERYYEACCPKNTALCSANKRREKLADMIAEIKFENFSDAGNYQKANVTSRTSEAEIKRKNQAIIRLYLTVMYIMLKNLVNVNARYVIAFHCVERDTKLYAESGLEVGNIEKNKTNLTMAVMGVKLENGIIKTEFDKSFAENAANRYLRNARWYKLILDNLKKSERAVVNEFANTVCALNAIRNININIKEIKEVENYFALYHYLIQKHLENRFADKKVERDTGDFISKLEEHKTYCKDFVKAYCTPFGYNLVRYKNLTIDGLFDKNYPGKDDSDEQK

B1: target 1 A1U,C2G (mixed)
RNA 1: CACCCGUGCAAAAAUGCAGGGGUCUAAAACUGAGCGGAUAACCUCUCUAUGG
RNA 2: GGGAAUGGAUCCACAUCUACGAAUUCGUACCAUAGAGAGGUUAUCCGCUGUCCGAGAUCGGAAGAGCACACGU
B2: target 1 A1G,C6G (mixed)
RNA 1: B1 RNA 1
RNA 2: B1 RNA 2 with C46G, G50C, U51G
B3: target 1 insC 3' of 8,insG 3' of 8 (mixed)
RNA 1: B1 RNA 1
RNA 2: GGGAAUGGAUCCACAUCUACGAAUUCGUACCAUAGAGAGGUUAUCGCCGCUCACCGAGAUCGGAAGAGCACACGU
B4: target 1 insC 3' of 17,insC 3' of 15 (mixed)
RNA 1: B1 RNA 1
RNA 2: GGGAAUGGAUCCACAUCUACGAAUUCGUACCAUAGCAGCAGGUUAUCCGCUCACCGAGAUCGGAAGAGCACACGU
B5: target 1 insU 3' of 2,insA 3' of 2 (mixed)
RNA 1: B1 RNA 1
RNA 2: B3 RNA 2 with G46C, C47G, G49U, C52A
B6: target 2 MT 5'PFS ACU 3'PFS ACA (mixed)
RNA 1: CACCCGUGCAAAAUUGCAGGGGUCUAAAACCUUCUCCAAAUUGUUUCAUCCU
RNA 2: GGGAAUGGAUCCACAUCUACGAAUUCACUAGGAUGAAACAAUUUGGAGAAGACAAGAUCGGAAGAGCACACGU
B7: target 2 MT 5'PFS AUG 3'PFS CAU (mixed)
RNA 1: B6 RNA 1
RNA 2: B6 RNA 2 with C28U, U29G, A52C, C53A, A54U
B8: target 2 MT 5'PFS AAA 3'PFS UUU (mixed)
RNA 1: B6 RNA 1
RNA 2: B6 RNA 2 with C28A, U29A, A52U, C53U, A54U
B9: target 2 MT 5'PFS AAU 3'PFS CAU (mixed)
RNA 1: B6 RNA 1
RNA 2: B6 RNA 2 with C28A, A52C, C53A, A54U
B10: target 2 MT 5'PFS ACU 3'PFS ACU (mixed)
RNA 1: B6 RNA 1
RNA 2: B6 RNA 2 with A54U
B11: target 2 MT 5'PFS GGG 3'PFS UCU (mixed)
RNA 1: B6 RNA 1
RNA 2: B6 RNA 2 with A27G, C28G, U29G, A52U, A54U
B12: target 2 MT 5'PFS GAA 3'PFS CAU (mixed)
RNA 1: B6 RNA 1
RNA 2: B6 RNA 2 with A27G, C28A, U29A, A52C, C53A, A54U
B13: target 2 MT 5'PFS AGC 3'PFS CCG (mixed)
RNA 1: B6 RNA 1
RNA 2: B6 RNA 2 with C28G, U29C, A52C, A54G
B14: target 2 MT 5'PFS CCG 3'PFS CCU (mixed)
RNA 1: B6 RNA 1
RNA 2: B6 RNA 2 with A27C, U29G, A52C, A54U
B15: target 2 MT 5'PFS UCG 3'PFS CCG (mixed)
RNA 1: B6 RNA 1
RNA 2: B6 RNA 2 with A27U, U29G, A52C, A54G
B16: target 2 MT 5'PFS GUU 3'PFS CCG (mixed)
RNA 1: B6 RNA 1
RNA 2: B6 RNA 2 with A27G, C28U, A52C, A54G
B17: target 2 MT 5'PFS ACU 3'PFS ACC (mixed)
RNA 1: B6 RNA 1
RNA 2: B6 RNA 2 with A54C
B18: target 2 MT 5'PFS CCG 3'PFS CCC (mixed)
RNA 1: B6 RNA 1
RNA 2: B6 RNA 2 with A27C, U29G, A52C, A54C
B19: target 2 MT 5'PFS GGG 3'PFS UCG (mixed)
RNA 1: B6 RNA 1
RNA 2: B6 RNA 2 with A27G, C28G, U29G, A52U, A54G
B20: target 2 MT 5'PFS GGG 3'PFS UCC (mixed)
RNA 1: B6 RNA 1
RNA 2: B6 RNA 2 with A27G, C28G, U29G, A52U, A54C
B21: target 2 MT 5'PFS UAG 3'PFS CCC (mixed)
RNA 1: B6 RNA 1
RNA 2: B6 RNA 2 with A27U, C28A, U29G, A52C, A54C
B22: target 2 MT 5'PFS GAA 3'PFS AGG (mixed)
RNA 1: B6 RNA 1
RNA 2: B6 RNA 2 with A27G, C28A, U29A, C53G, A54G
B23: target 2 MT 5'PFS AUG 3'PFS CAA (mixed)
RNA 1: B6 RNA 1
RNA 2: B6 RNA 2 with C28U, U29G, A52C, C53A
B24: target 2 MT 5'PFS AUU 3'PFS UCA (mixed)
RNA 1: B6 RNA 1
RNA 2: B6 RNA 2 with C28U, A52U
B25: target 2 MT 5'PFS GUU 3'PFS CCA (mixed)
RNA 1: B6 RNA 1
RNA 2: B6 RNA 2 with A27G, C28U, A52C
B26: target 2 MT 5'PFS GAA 3'PFS AGC (mixed)
RNA 1: B6 RNA 1
RNA 2: B6 RNA 2 with A27G, C28A, U29A, C53G, A54C
B27: target 2 MT 5'PFS AGC 3'PFS CCA (mixed)
RNA 1: B6 RNA 1
RNA 2: B6 RNA 2 with C28G, U29C, A52C
B28: target 2 MT 5'PFS AUU 3'PFS UCG (mixed)
RNA 1: B6 RNA 1
RNA 2: B6 RNA 2 with C28U, A52U, A54G
B29: target 2 MT 5'PFS AAA 3'PFS UUA (mixed)
RNA 1: B6 RNA 1
RNA 2: B6 RNA 2 with C28A, U29A, A52U, C53U
B30: target 2 MT 5'PFS GAA 3'PFS AGA (mixed)
RNA 1: B6 RNA 1
RNA 2: B6 RNA 2 with A27G, C28A, U29A, C53G
B31: target 2 MT 5'PFS GGG 3'PFS UCA (mixed)
RNA 1: B6 RNA 1
RNA 2: B6 RNA 2 with A27G, C28G, U29G, A52U
B32: target 2 MT 5'PFS GAA 3'PFS AGU (mixed)
RNA 1: B6 RNA 1
RNA 2: B6 RNA 2 with A27G, C28A, U29A, C53G, A54U
B33: target 2 MT 5'PFS AAU 3'PFS CAC (mixed)
RNA 1: B6 RNA 1
RNA 2: B6 RNA 2 with C28A, A52C, C53A, A54C
B34: target 2 MT 5'PFS AAU 3'PFS CAA (mixed)
RNA 1: B6 RNA 1
RNA 2: B6 RNA 2 with C28A, A52C, C53A
B35: target 2 MT 5'PFS AUU 3'PFS CGU (mixed)
RNA 1: B6 RNA 1
RNA 2: B6 RNA 2 with C28U, A52C, C53G, A54U

In article PMC10786891, “Massively parallel profiling of RNA-targeting CRISPR-Cas13d” one finds Kd data, which are given here for 35 molecules.

Residue numbers refer to the chain shown, from its start. Numbers in names are those of the source.

The target in this series is T1, EsCas13d, nuclease-dead. In words: crRNA (strand 1, pre-loaded); Mg2+; 40 mM Tris-HCl pH 7.5, 150 mM NaCl, 6 mM MgCl2, 1 mM DTT, 0.1% Tween-20, 0.2 mg/ml BSA; 25 C; 10 min per concentration, then washed. Conditions: tags: His6-TwinStrep-SUMO cleaved; N-terminal SNAP kept (SNAP-Surface 488); label: 3' end held by stalled T7 RNA polymerase.
For the molecule B1, the Kd worked out at 9.2 ± 0.8 nM.

For B2, the Kd was 7.3 ± 0.4 nM.

B3 displayed an equilibrium dissociation constant (Kd) of 10.6 ± 0.5 nM.

For the molecule B4, the affinity, expressed as Kd, was 38 ± 6 nM.

As to B5, the Kd was 10.9 ± 0.5 nM.

As to B6, the dissociation constant Kd amounted to 4.2 ± 0.7 nM.

B7 had a Kd of 7.6 ± 0.8 nM.

For B8, the Kd was 23 ± 10 nM.

For B9, the Kd was 3 ± 0.6 nM.

Consider B10, for which the Kd came out at 7.3 ± 1.3 nM.

Consider B11, for which binding was put at a Kd of 12.1 ± 0.8 nM.

In turn, B12 had a Kd of 8.6 ± 1.7 nM.

Consider B13, for which the affinity, expressed as Kd, was 9.3 ± 1 nM.

As to B14, the Kd worked out at 8.4 ± 1.6 nM.

For B15, the Kd came to 90 ± 40 nM.

Molecule B16 showed an equilibrium dissociation constant (Kd) of 14.3 ± 1.2 nM.

With B17, the equilibrium dissociation constant (Kd) is 9.3 ± 2.2 nM.

As to B18, the affinity, expressed as Kd, was 3.1 ± 0.5 nM.

As for B19, binding was put at a Kd of 11.5 ± 0.8 nM.

In turn, B20 returned a Kd of 52 ± 14 nM.

Regarding B21, the Kd was determined as 24 ± 9 nM.

B22 showed an equilibrium dissociation constant (Kd) of 6.9 ± 0.7 nM.

Molecule B23 registered a Kd of 9 ± 1.4 nM.

B24: the Kd is 7 ± 0.8 nM.

As to B25, the Kd was roughly 90 nM.

Take B26: the Kd worked out at 6.3 ± 1.1 nM.

B27 had a Kd of 78 ± 32 nM.

As to B28, binding was put at a Kd of 7.8 ± 0.7 nM.

With B29, the Kd was found to be 5.6 ± 1.5 nM.

Molecule B30 displayed a Kd of 5.4 ± 0.9 nM.

B31 came in with a Kd of 11.3 ± 1.5 nM.

B32 gave a Kd of 15.3 ± 2.4 nM.

Regarding B33, the dissociation constant Kd stood at 5.2 ± 1 nM.

B34 showed a Kd of 4.3 ± 0.7 nM.

The molecule B35 displayed a Kd of 6.9 ± 0.9 nM.
